From PMC8804933 (The EMBO Journal, 2021)
Changes are numbered by the printed parent chain. Numbers in names are those of the source. Each block holds one binder with its values, some of them ahead of it.

Tests used:
[1] = molecular target: T1, ubiquitin (unlabeled, wild-type) (human, UniProt P0CG48 1-76); test: NMR titration
[2] = molecular target: T1, ubiquitin (unlabeled, wild-type); test: BLI

binding result [1]: binds
B1: 15N-labeled UBE2S UBC E139R/E143R (residues 1-156) (domain or fragment)
chain: MNSNVENLPPHIIRLVYKEVTTLTADPPDGIKVFPNEEDLTDLQVTIEGPEGTPYAGGLFRMKLLLGKDFPASPPKGYFLTKIFHPNVGANGEICVNVLKRDWTAELGIRHVLLTIKCLLIHPNPESALNEEAGRLLLRNYERYAARARLLTEIHG

binding result [1]: binds
B2: 15N-labeled UBE2S UBC E139R (residues 1-156) (domain or fragment)
chain: B1 chain with R143E

binding result [1]: binds
B3: 15N-labeled UBE2S UBC E143R (residues 1-156) (domain or fragment)
chain: B1 chain with R139E

Kd [2]: 650 µM
B4: GST-UBE2R2 wild-type (enzyme)
chain: MAQQQMTSSQKALMLELKSLQEEPVEGFRITLVDESDLYNWEVAIFGPPNTLYEGGYFKAHIKFPIDYPYSPPTFRFLTKMWHPNIYENGDVCISILHPPVDDPQSGELPSERWNPTQNVRTILLSVISLLNEPNTFSPANVDASVMFRKWRDSKGKDKEYAEIIRKQVSATKAEAEKDGVKVPTTLAEYCIKTKVPSNDNSSDLLYDDLYDDDIDDEDEEEEDADCYDDDDSGNEES

Kd [2]: > 4000 µM
B5: GST-UBE2R2 R149E (enzyme)
chain: B4 chain with R149E
